Test results published in the supplement of paper PMC10201428.
± gives the standard deviation of the averaged measurements.

B1: library; a variant is named by its letters at N, in order (parent)
chain: AATGTTGTTGATGCAACCATAAAGTGATATTTAATAATTATTTATAATCAGCAACTTAACCACAAAACAACCATATATTGATATNTCACAAAACAACCATAANTTGATATTTTTGTGAATCGAGTATTTCAGCAAAACTACTGCAGTAAGAA

Tests used:
[1] = variants of: B1; assay: relative integration efficiency (T-LR orientation) vs wild-type transposon end (log2 (normalized fold change)); transposon end mutated: left end; higher = more efficient transposition; details: with VchCAST RNA-guided transposition machinery (E. coli BL21(DE3) host, lacZ target)
Summary of the method: (§1)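 In E. coli BL21(DE3), a T7-driven effector plasmid was paired with a pUC57 mini-transposon donor containing 1549 left-end or 1849 right-end barcoded transposon variants. Cells grew on plates with 0.1 mM IPTG at 37°C for 18 h. Relative integration efficiency was derived from Illumina reads of genomic integration junctions against input plasmids, as a log-transformed output/input barcode fold change normalised to reference barcodes.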

[2] = variants of: B1; assay: relative integration efficiency (T-RL orientation) vs wild-type transposon end (log2 (normalized fold change)); transposon end mutated: left end; higher = more efficient transposition; details: with VchCAST RNA-guided transposition machinery (E. coli BL21(DE3) host, lacZ target)
Summary of the method: as §1

| Variant | relative integration efficiency (log2) [1] | relative integration efficiency (log2) [2] |
| --- | --- | --- |
| CG T74G | -1.2 ± 1.2 | -1.35 ± 0.79 |
| CG T74G A75C | -2.15 ± 0.86 | -2.21 ± 0.94 |
| CG T74G A75C T76G A77C | -2.54 ± 1.3 | -1.95 ± 0.99 |
| CG T76A | 0.179 ± 0.069 | 0.0494 ± 0.062 |
| TG T76A A77G C87T | 0.266 ± 0.15 | -0.247 ± 0.35 |
| CG T76A A77T | -0.19 ± 0.3 | 0.117 ± 0.012 |
| CG T76A A77T T78A T79A | -0.702 ± 1.2 | -0.611 ± 0.38 |
| TG T76A T78A T84A C87A | 0.281 ± 0.38 | -0.028 ± 0.21 |
| TG T76A T78G C87A | 0.336 ± 0.26 | 0.505 ± 0.035 |
| CG T76C | -1.37 ± 0.51 | -1.06 ± 0.46 |
| CG T76G | -0.699 ± 0.91 | -0.903 ± 0.5 |
| CG T76G A77C | -0.497 ± 0.94 | -0.785 ± 0.46 |
| CG T76G A77C T78G T79G | -3.06 ± 1.4 | -2.26 ± 0.77 |
| CG T78A | -0.0877 ± 0.12 | 0.0885 ± 0.016 |
| CG T78A T79A | -0.257 ± 0.57 | -0.058 ± 0.35 |
| CG T78A T79A G80C A81T | -1.07 ± 0.89 | -1.38 ± 0.59 |
| CG T78C | 0.27 ± 0.3 | -0.0794 ± 0.1 |
| CG T78G | 0.198 ± 0.14 | -0.0793 ± 0.054 |
| CG T78G T79G | 0.377 ± 0.26 | 0.387 ± 0.84 |
| CG T78G T79G G80T A81C | -3.25 ± 1.3 | -2.44 ± 0.79 |
| CG T79A | -0.546 ± 0.48 | -0.596 ± 0.38 |
| CG T79A G80C | -1.35 ± 1.1 | -1.89 ± 0.83 |
| CG T79A G80C A81T T82A | -2.46 ± 2 | -1.87 ± 0.95 |

| Variant | relative integration efficiency (log2) [1] | relative integration efficiency (log2) [2] |
| --- | --- | --- |
| CG T79C | -0.488 ± 0.74 | -0.605 ± 0.26 |
| CG T79G | -0.323 ± 0.18 | -0.702 ± 0.47 |
| CG T79G G80T | -0.966 ± 0.14 | -1.24 ± 0.76 |
| CG T79G G80T A81C T82G | -2.43 ± 1.1 | -2.68 ± 0.95 |
| CG T82A A83T | -0.417 ± 0.84 | -0.851 ± 0.49 |
| GG T82A A83T T84A | -0.904 ± 0.77 | -0.974 ± 0.49 |
| CG T82C | 0.362 ± 0.73 | 0.536 ± 0.29 |
| CG T82G | -0.227 ± 0.47 | -0.597 ± 0.43 |
| CG T82G A83C | -1.19 ± 0.87 | -1.4 ± 0.66 |
| AG T82G A83C T84G | -1.31 ± 0.38 | -1.7 ± 0.88 |
| CG T84A | -0.0315 ± 0.47 | -0.0633 ± 0.033 |
| GG T84A | -0.365 ± 0.032 | -0.231 ± 0.12 |
| GG T84A T86A C87G | 0.0518 ± 0.56 | -0.036 ± 0.31 |
| CG T84C | -0.172 ± 0.0094 | -0.158 ± 0.056 |
| CG T84G | -0.943 ± 0.55 | -0.591 ± 0.3 |
| AG T84G | -0.223 ± 1.1 | -0.407 ± 0.3 |
| AG T84G T86G C87A | 0.381 ± 0.25 | 0.0958 ± 0.22 |
| CG T86A | 0.731 ± 0.2 | 0.656 ± 0.025 |
| GG T86A | 0.153 ± 0.2 | -0.397 ± 0.17 |
| CG T86A C87G | 0.622 ± 0.21 | 0.28 ± 0.099 |
| GG T86A C87G A88T | 0.143 ± 0.77 | -0.152 ± 0.19 |
| CG T86A C87G A88T C89G | 0.1 ± 0.54 | -0.174 ± 0.12 |
| CG T86C | 0.176 ± 0.013 | -0.261 ± 0.092 |

| Variant | relative integration efficiency (log2) [1] | relative integration efficiency (log2) [2] |
| --- | --- | --- |
| CG T86G | 0.0399 ± 0.26 | -0.108 ± 0.045 |
| AG T86G | 0.305 ± 0.13 | -0.271 ± 0.068 |
| CG T86G C87A | -0.424 ± 0.33 | -0.246 ± 0.1 |
| AG T86G C87A A88C | 0.0813 ± 0.34 | -0.158 ± 0.041 |
| CG T86G C87A A88C C89A | -0.0346 ± 0.016 | 0.0789 ± 0.1 |
| CG T100A | 0.42 ± 1 | 0.66 ± 0.49 |
| CG T100A A101T | -0.623 ± 0.79 | -0.364 ± 0.49 |
| CG T100C | -2.04 ± 0.83 | -1.27 ± 0.52 |
| CG T100G | -0.934 ± 1.6 | -0.706 ± 0.73 |
| CG T100G A101C | -3.81 ± 1.3 | -2.16 ± 0.7 |
| CG T104A | -0.147 ± 0.15 | -0.341 ± 0.23 |
| CG T104A T105A | -0.853 ± 0.48 | -0.642 ± 0.47 |
| CG T104A T105A G106C A107T | -1.39 ± 0.94 | -2.04 ± 0.73 |
| CG T104C | -0.483 ± 0.33 | -0.257 ± 0.037 |
| CG T104G | -0.2 ± 0.48 | -0.0872 ± 0.27 |
| CG T104G T105G | -1.76 ± 0.75 | -1.3 ± 0.71 |
| CG T104G T105G G106T A107C | -2.25 ± 1.7 | -2.11 ± 0.66 |
| CG T105A | -1.22 ± 0.29 | -0.835 ± 0.58 |
| CG T105A G106C | -2.53 ± 0.084 | -2.19 ± 0.71 |
| CG T105A G106C A107T T108A | -1.32 ± 0.25 | -1.6 ± 0.76 |
| CG T105C | -0.552 ± 0.81 | -0.583 ± 0.2 |
| CG T105G | -0.747 ± 0.68 | -1.17 ± 0.51 |
| CG T105G G106T | -0.649 ± 0.86 | -1.2 ± 0.72 |

| Variant | relative integration efficiency (log2) [1] | relative integration efficiency (log2) [2] |
| --- | --- | --- |
| CG T105G G106T A107C T108G | -2.48 ± 1.8 | -2 ± 0.7 |
| CG T108A | -1.1 ± 0.37 | -0.257 ± 0.48 |
| CG T108A A109T | -0.852 ± 0.53 | -0.848 ± 0.47 |
| CG T108A A109T T110A T111A | -1.21 ± 0.27 | -0.957 ± 0.51 |
| CG T108C | -0.173 ± 0.39 | -0.187 ± 0.35 |
| CG T108G | -0.924 ± 0.023 | -0.684 ± 0.41 |
| CG T108G A109C | -0.995 ± 1 | -1.16 ± 0.59 |
| CG T108G A109C T110G T111G | -2.71 ± 1.1 | -1.63 ± 0.69 |
| CG T110A | 0.258 ± 0.5 | -0.016 ± 0.099 |
| CG T110A T111A | -0.344 ± 0.074 | -0.513 ± 0.22 |
| CG T110A T111A T112A T113A | -0.328 ± 0.56 | -0.587 ± 0.42 |
| CG T110C | -0.691 ± 0.63 | -0.405 ± 0.13 |
| CG T110G | -0.561 ± 0.13 | -0.516 ± 0.25 |
| CG T110G T111G | -1.08 ± 0.37 | -1.16 ± 0.65 |
| CG T110G T111G T112G T113G | -1.8 ± 1.2 | -1.4 ± 0.63 |
| CG T111A | -0.0724 ± 0.42 | -0.134 ± 0.076 |
| CG T111A T112A | -0.101 ± 0.79 | -0.479 ± 0.31 |
| CG T111A T112A T113A T114A | -0.629 ± 0.047 | -0.668 ± 0.39 |
| CG T111C | -0.338 ± 0.58 | -0.142 ± 0.1 |
| CG T111G | 0.0369 ± 0.43 | -0.195 ± 0.25 |
| CG T111G T112G | -0.977 ± 0.75 | -0.622 ± 0.16 |
| CG T111G T112G T113G T114G | -0.443 ± 0.72 | -0.798 ± 0.34 |
| CG T112A | -0.239 ± 0.61 | -0.304 ± 0.19 |

| Variant | relative integration efficiency (log2) [1] | relative integration efficiency (log2) [2] |
| --- | --- | --- |
| CG T112A T113A | -0.503 ± 0.53 | -0.318 ± 0.2 |
| CG T112A T113A T114A G115C | -0.584 ± 1 | 0.0734 ± 0.12 |
| CG T112C | -0.138 ± 0.38 | -0.258 ± 0.13 |
| CG T112G | -0.249 ± 0.13 | -0.63 ± 0.13 |
| CG T112G T113G | -0.314 ± 0.34 | -0.443 ± 0.12 |
| CG T112G T113G T114G G115T | -0.51 ± 0.098 | -0.359 ± 0.072 |
| CG T113A | -0.342 ± 0.22 | -0.277 ± 0.047 |
| CG T113A T114A | -0.122 ± 0.087 | -0.426 ± 0.25 |
| CG T113A T114A G115C T116A | -0.0852 ± 0.079 | 0.0572 ± 0.12 |
| CG T113C | 0.405 ± 0.02 | 0.263 ± 0.16 |
| CG T113G | 0.451 ± 0.17 | -0.0711 ± 0.12 |
| CG T113G T114G | -0.0365 ± 0.41 | -0.199 ± 0.073 |
| CG T113G T114G G115T T116G | -0.271 ± 0.14 | -0.144 ± 0.053 |
| CG T113G T114G G115T T116G G117T A118C A119C T120G C121A G122T A123C G124T T125G | -0.192 ± 0.1 | -0.0695 ± 0.04 |
| CG T114A | -0.000535 ± 0.15 | -0.291 ± 0.097 |
| CG T114A G115C | -0.272 ± 0.35 | -0.342 ± 0.024 |
| CG T114A G115C T116A G117C | -0.217 ± 0.74 | -0.00788 ± 0.19 |
| CG T114C | -0.293 ± 0.5 | -0.448 ± 0.095 |
| CG T114G | -0.0542 ± 0.0021 | -0.0633 ± 0.064 |
| CG T114G G115T | 0.781 ± 0.54 | -0.471 ± 0.32 |
| CG T114G G115T T116G G117T | -0.295 ± 0.33 | -0.309 ± 0.015 |
